How the values were obtained:
[1] = target: GFP-Tus-His6 fusion protein (E. coli) (UniProt P16525); assay: protein microarray, fluorescence; fusion protein made in situ and held on plasmid with wild-type Ter site, detected with Cy5-labeled anti-his antibody
[2] = target: GFP-Tus-His6 fusion protein (E. coli) (UniProt P16525); assay: protein microarray, fluorescence; fusion protein made in situ and held on plasmid with mutant Ter site (SEQ ID NO: 12), detected with Cy3-labeled anti-his antibody
[3] = target: GFP-Tus-His6 fusion protein (E. coli) (UniProt P16525); assay: protein microarray, fluorescence; fusion protein made in situ and held on plasmid with wild-type Ter site, detected with Cy3-labeled anti-his antibody
[4] = target: GFP-Tus-His6 fusion protein (E. coli) (UniProt P16525); assay: protein microarray, fluorescence; fusion protein made in situ and held on plasmid with mutant Ter site (SEQ ID NO: 12), detected with Cy5-labeled anti-his antibody

Work on “monoclonal antibody to the poly-his tag (Sigma-Aldrich), labeled with Cy3 or Cy5” yielded a Cy5 Signal Intensity (Background subtracted) (arbitrary units) [1] of 14000, a Cy3 Signal Intensity (Background subtracted) (arbitrary units) [2] of 10900 and a Cy3 Signal Intensity (Background subtracted) (arbitrary units) [3] of 20600. The Cy5 Signal Intensity (Background subtracted) (arbitrary units) [4] was 4740.

Reference: patent US20080214408A1
